Laboratory results as given in US20140357851A1.

Biological target: PCSK9 S123R (human) (UniProt Q8NBP7)
Experiment: Luminex bead assay

BmaxPerWT (% of wild type): 87.6
RawMaxPerWT (% of wild type): 88.1
B1: 21B12 (isotype as tested not stated) (antibody, V domains shown)
VH: QVQLVQSGAEVKKPGASVKVSCKASGYTLTSYGISWVRQAPGQGLEWMGWVSFYNGNTNYAQKLQGRGTMTTDPSTSTAYMELRSLRSDDTAVYYCARGYGMDVWGQGTTVTVSS
VL: QSALTQPASVSGSPGQSITISCTGTSSDVGGYNSVSWYQQHPGKAPKLMIYEVSNRPSGVSNRFSGSKSGNTASLTISGLQAEDEADYYCNSYTSTSMVFGGGTKLTVL
